{"source": "paper PMC9020725", "origin": "cited, not measured here", "key": {"[1]": {"target": "beta-spectrin repeats 10-13 (Homo sapiens) (UniProt P11277)", "sequence (P11277 1275-1688)": "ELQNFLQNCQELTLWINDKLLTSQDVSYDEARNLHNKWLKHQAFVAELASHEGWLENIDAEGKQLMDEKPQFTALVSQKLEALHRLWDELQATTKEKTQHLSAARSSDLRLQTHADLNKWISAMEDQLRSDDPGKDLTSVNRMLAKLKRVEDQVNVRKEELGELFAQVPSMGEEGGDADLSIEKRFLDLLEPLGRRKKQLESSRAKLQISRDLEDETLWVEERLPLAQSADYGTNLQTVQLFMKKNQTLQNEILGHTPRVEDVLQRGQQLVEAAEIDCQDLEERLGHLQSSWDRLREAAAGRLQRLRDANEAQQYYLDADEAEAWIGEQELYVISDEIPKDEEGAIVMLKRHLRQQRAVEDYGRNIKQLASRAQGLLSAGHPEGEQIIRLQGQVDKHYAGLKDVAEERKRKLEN"}, "[2]": {"target": "ankyrin band 3 binding domain (Homo sapiens) (UniProt P16157)", "sequence (P16157 1-827)": "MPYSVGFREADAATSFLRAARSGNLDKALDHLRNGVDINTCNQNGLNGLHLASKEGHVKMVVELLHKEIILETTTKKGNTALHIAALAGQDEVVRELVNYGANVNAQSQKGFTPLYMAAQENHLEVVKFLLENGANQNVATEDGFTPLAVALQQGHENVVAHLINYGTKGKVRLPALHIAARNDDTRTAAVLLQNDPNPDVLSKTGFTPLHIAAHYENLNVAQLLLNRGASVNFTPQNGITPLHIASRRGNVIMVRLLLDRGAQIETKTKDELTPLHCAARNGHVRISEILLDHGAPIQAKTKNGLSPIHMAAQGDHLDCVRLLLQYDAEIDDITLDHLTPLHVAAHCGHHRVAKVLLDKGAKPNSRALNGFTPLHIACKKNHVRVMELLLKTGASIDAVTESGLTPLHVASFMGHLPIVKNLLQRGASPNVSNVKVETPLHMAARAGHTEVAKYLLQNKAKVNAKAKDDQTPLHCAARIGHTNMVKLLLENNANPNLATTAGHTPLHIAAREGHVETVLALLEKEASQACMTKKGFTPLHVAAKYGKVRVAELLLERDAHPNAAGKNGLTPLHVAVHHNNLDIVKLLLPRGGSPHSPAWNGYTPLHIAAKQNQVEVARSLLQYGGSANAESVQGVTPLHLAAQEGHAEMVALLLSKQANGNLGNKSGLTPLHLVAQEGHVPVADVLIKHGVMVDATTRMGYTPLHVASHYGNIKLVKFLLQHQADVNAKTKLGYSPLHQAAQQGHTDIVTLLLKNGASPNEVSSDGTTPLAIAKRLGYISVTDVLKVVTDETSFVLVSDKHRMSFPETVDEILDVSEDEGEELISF"}}, "data": [{"substance": "KAHRP (from UniProt P09346)", "values": [{"measurement": "Kd", "setting": "[1]", "result": 50, "unit": "µM"}, {"measurement": "Kd", "setting": "[2]", "result": 1.55, "unit": "µM"}]}]}
